The data set concerns the molecule itself. As to the kind of experiment: crystal structure; C2 crystals of HsFUT8 with 5 mM GDP and 5 mM G0, 1.95 Å; two molecules in the asymmetric unit, each forming a dimer with a molecule of the neighbouring asymmetric unit.

B1: human α1,6-fucosyltransferase (HsFUT8), residues 68–575 (enzyme, UniProt Q9BYC5 68-575, looked up)
chain: RIPEGPIDQGPAIGRVRVLEEQLVKAKEQIENYKKQTRNGLGKDHEILRRRIENGAKELWFFLQSELKKLKNLEGNELQRHADEFLLDLGHHERSIMTDLYYLSQTDGAGDWREKEAKDLTELVQRRITYLQNPKDCSKAKKLVCNINKGCGYGCQLHHVVYCFMIAYGTQRTLILESQNWRYATGGWETVFRPVSETCTDRSGISTGHWSGEVKDKNVQVVELPIVDSLHPRPPYLPLAVPEDLADRLVRVHGDPAVWWVSQFVKYLIRPQPWLEKEIEEATKKLGFKHPVIGVHVRRTDKVGTEAAFHPIEEYMVHVEEHFQLLARRMQVDKKRVYLATDDPSLLKEAKTKYPNYEFISDNSISWSAGLHNRYTENSLRGVILDIHFLSQADFLVCTFSSQVCRVAYEIMQTLHPDASANFHSLDDIYYFGGQNAHNQIAIYAHQPRTADEIPMEPGDIIGVAGNHWDGYSKGVNRKLGRTGLYPSYKVREKIETVKYPTYPEAEK
notes: α1,6-fucosyltransferase (FUT8), human, amino acid residues 68–575 (coiled-coil, catalytic and SH3 domains); Expressed from pHLSec-12His-GFP-TEV-HsFUT8 after the vector's secretion signal; His-GFP cut off with TEV protease before crystallisation; Crystallised with GDP and the N-glycan G0; source: HEK293F, transfected, secreted into the supernatant, purified (His-Trap, TEV cleavage, second …)
As for B1, the binding result is “binds”.
